# The DeepSol protein solubility set
# Assay: soluble on expression in E. coli; label from the status in PepcDB or PDB records
row,Sequence,soluble on expression in E. coli
1,MSSEELEQVWSNIKSEARALAECEPMLASFFHATLLKHENLGSALSYILANKLANPIMPAIAIREVVEEAYRSDAHMIVSAARDILAVRLRDPAVDKYSTPLLYLKGFHALQAYRIGHWLWAQDRKALAIYLQNQVSVAFGVDIHPAATIGCGIMLDHATGIVIGETAVVENDVSILQSVTLGGTGKTSGDRHPKIREGVMIGAGAKILGNIEVGRGAKIGAGSVVLQSVPAHTTAAGVPARIVGKPESDKPSLDMDQHFNGSIQGFEYGDGI,not soluble
2,MATASADTLCSQQEDESWGNLMLHGFQVEAYKPVRVGDKVCYSFYLKNTGSSDVTLGKKGVYLHTNDGDLSSNSGATISPGKSIFVKDCFIASSSGEWTTYPGVCIITAKGEFCHNFETSCTFDVFIECPENWNCMTAEDASQGNYIRYSDELCGYTITGFTAMNKVRCTATEKLLNALQALGV,not soluble
3,MSTIHEFPKNYERFIAQGEEALVEHNQIAALENFQQAYQLQQTPPVNQKIVQLLLEMGEADEALALAEAFQESYFENLETAAIYMQIYSQSRRFIEGYILLKQLLQTKKITLAQQKTLEQQLMQVEEAYQQLETQQIQAIKRNLLVSDQLPVYQQLANIKTSLYLPKPVFVEVAKDLVMNQALSYFAREWFIEELALLQFSEPLTFLWYDNQPQTVLLEGKTGPLNTPIYSEICTELRNRLENDDPIMLQHLEEEIRLHLAYLYPLAETVISDPTIWVLGYLATYYPEYIEKELTEAKGHQIDAVQKVQQAIRTAFTQIML,soluble
4,MKELNDLEKKYNAHIGVYALDTKSGKEVKFNSDKRFAYASTSHAINSAILLEQVPYNKLNKKVHINKDDIVAYSPILEKYVGKDITLKALIEASMTYSDNTANNKIIKEIGGIKKVKQRLKELGDKVTNPVRYEIELNYYSPKSKKDTSTPAAFGKTLNKLIANGKLSKENKKFLLDLMLNNKSGDTLIKDGVPKDYKVADKSGQAITYASRNDVAFVYPKGQSEPIVLVIFTNKDNKSDKPNDKLISETAKSVMKEF,soluble
5,MAHHHHHHMPHEDHKKYRVQREDLPAMPHFSDFNDPRFCGTTNKQKNGILAYYQWLHCIGNWGEEHSMCKKMRWYVERMMHETWLEKWEEKRALGHFDHTVLYGVKPWKEFEPLYQPVKKNRKGAYEYWLDRDFEPLYDVDAADWRERAPILHDMFVLGKKPVSE,soluble
6,MELKEGDEILNVAGPLGNPAPMEKFGKILAIGAYVGIAEVYPIAKAWQEIGNDVTTLHVTFEPMVILKDYFEKAVSRHIVEPVKIDQEKSFQENTKNVTKALTAKVKELLDNENWDLVFMVGPPGDQKAVFEVVKKYGIPMKVDLHPIMLEHHHHHH,not soluble
7,MRAIGLLEFKEITRGVYAADVMLKATPVELLLIDNICPGKLIVLIEGEVSAVKNAISRGKEVFSEGVIEEVVLTNPHPSLSTVFPRKKQSKKLNYNSIGIIETLSVSSAIKAADKAAKGANVEIIDIKIARFLGGKAIVVLGGEISAVKVAIDAGISAVQKGKLVSSTVVANINEKLLEMWV,soluble
8,MGSDKIHHHHHHMTGIVTANWWTSLIYRVFVRTACLRAGRGLLPNIWEWLWRLSCNIIEGPVDITIHNRPAIVNFGYTYPIYMRCYPELNAPLVELTYQCWRSRGTAICIVDVGAAVGDTMLLLHSNLPEAVGSFVCIEGDQEFYRYLQHNLGHMTEGRLINVVVADQETEVSDLVRIHTGTASAQGERTRGASTLSAVVTEEIDLIKIDVDGFDGRVLLGAEDLLKRCRPLVIFEWHPSLCRQTGNNWTDHFDVLARCGYSRCLWFTKFGHFSHFSFGHCREEIDTLAEYCMSDVVKDWHYDVIALHDDSDLSLLLLSQLGFAKARPSRY,not soluble
9,LAEGEEQIVARDGNSWLVDGVTPITDVMRSFAIEEFPQQQNYETIAGFMMYMLRKIPRRTDSVVYAGYKFEVVDIDNYKVDQLLVSRVE,not soluble
10,MGSDKIHHHHHHMTDSRQRLLVFAPTRRVASETFVRANLAGLPFEVSAYFGDEFPLDQPGRFAYGLGVLLSKIFTRLGWLRLAELPAAFVAWILIRRHRPDVVLAEFGFHAVRVMQAAARVDVPFVVHFRGSDLSANRRLGVLRSRYRRLVSIASGVVCKSRPMATTLEQLGASPSTILISPSGANPALFSVGDPALAAPVFLAVGRFVAKKGPLQTIRAFAGQPQGELWMVGEGPLLAEARRLVQALQVQDRVRFLGVKTQSEVAALMRQARVFVQHSQIAPDGDSEGNPVSVMEAQLCGLPVVATLHAGIPDVVLDGSTGLLVEENDVDGMAEAMTRLMADPNLAAQFGLAGRERVLAAFTLEHHLQDLTRFLQQQIRSTTHF,not soluble
11,MRCLALDIGGTKIAAAIVKNGEIEQRQQIHTPRENVVEGMHQALGKLLADYEGQFDYVAVASTGIINNGILSALNPKNLGGLAEFPLKASIAKHTDKPIGLLNDAQAATYAEYQLQNSEQVSNFVFITVSTGVGGGIVLNQILQTGSRGIAGHIGHTLADPNGAICGCGRRGCVEAIASGRAIEAVSSQWEEPCDPKEVFERFRKNDEKATALVERSAKAIANLIADLVISLDIQKIAIGGSVGLAEGYLSLVEKYLQDFPSIYCCEIETAKFGQDAGLIGAAYWVKDVLLDKPEGTIYGLEHHHHHH,soluble
12,MGSDKIHHHHHHMNVAERKKQTVVSSGISGLDEILRGGLPASNLYIVQGAPGSGKTTAALQFLRAGVALGEPCIYVSLSQTRAELEAIALSHGWTLDGIRVEELSASDSINRAADQTIFQTTELRLDETRKAIESAIEEHKPSRLVYDSLLEIRLITADSPRFRRELIAFKAFLAQRNIVALLLDTQTSETDRTGEEVDGIAHGVIRLDKSLEEYGGVRRRIEVSKMRGVPVADGYHDMAIREGEGVVVFPRIVPGAAARTVKPQLIKSGVDTLDEMFGGGQESGTTTLVIGQAGTGKSTMASLYATAALKRGESVGLFLFEERIETFFRRSEGLGMALRQFHEDGQLILRDFNPNEISPGEFGQIVQQSVNSEKVKVVVIDSFTGYLNSLPHREKAVRDIQSLLKYLARAGVLTILIVAQHGLLGQGVGIDVDVSFLGDTVLLLRIAEHEGRLRRSITVVKKRHGPHDLDVRELFIQSSGVSVIAYNPLPEV,not soluble
13,MAYSKIRQPKLSDVIEQQLEFLILEGTLRPGEKLPPERELAKQFDVSRPSLREAIQRLEAKGLLLRRQGGGTFVQSSLWQSFSDPLVELLSDHPESQFDLLETRHALEGIAAYYAALRSTDEDKDRIRELHHAIELAQESGDLDAESEAVLQYQIAVTEAAHNVVLLHLLRCMEPMLAQNVRQNFELLYARREMLPLVSTHRTRIFEAIMAGKPEEAREASHRHLAFIEEIMLDRSREESRRERALRRLEQRKN,not soluble
14,SASEVEEQIPVREEFFLCGGVETKIIKCGPWTNLFEKQDVSKPKQLIFIIPGNPGYSAFYVPFAKALYTLMKSRFPVWIISHAGFSVTPKDKKVLAAPQEESNAQKIEDVYGLNGQIEHKIAFLRAHVPKDVKLILIGHSVGTYMTLHVMKRVPELPVAHAFLLFPTIERMSESPNGKFATPFLCQFRYLLYATSYLLFKPCPEVIKSFIIQKLMGQMNIKLELPLTDILQPFCLA,soluble
15,KCGFSYGVGFNVFNYKAVVTKYNNPEGIIYNNHTGLAANKGYYEGMDIGEIWGYRADDLFLSNREIDDYLRNVNLTAFKSNDLWRRGDLKYIDSNGDGRVDGGKGTLADHGDLQIIGNTTPKYSFGINLNLGYKGFEVSTLLQGVAKRDFPISGSNYMFGGNNYNFKEHLDYFSTENPNGYLPRLTGWKDDKDFLVNTGYNTTRYLLNAAYMRMKNLTVAYTFNKKQLKHIGISNLKVYVTCDNLFTVTKLPKQFDPETLNQVNMSAGGDAQNTAPGLTSPMKQNGNGMVYPMNRNFVFGLDFTF,not soluble
16,MNILTLMETFSAVVEAGSFTGAAEKLGLSKSFVSKQVSTLEVELGCRLLYRTTRTLSLSDEGSQFYNHCKIIMAEAENARAEVMDRQGAPRGKIRMTIPQSLIISGFGQLLIDFQLQYPEIKLEVIASGRIEDLVKEGIDIALRVGQLEDSSLISRRLMDCTFQVVASSDYIKKWGEPFQPADLMQHNCLIYGDSKINKGWPFRSPSGESITVKAKGNFISNDGGLVVEGMLNGLGIGFGPSFLFNEHVEKGRLKLLLSDYYQPPTAISALYPLNRNLSRRIRLLIDYLSERLSV,not soluble
